Assay results from IntAct's records for PubMed 17003044.

B1: BAR/IMD domain-containing adapter protein 2 (Homo sapiens), Q9UQB8 (parent)
chain: MSLSRSEEMHRLTENVYKTIMEQFNPSLRNFIAMGKNYEKALAGVTYAAKGYFDALVKMGELASESQGSKELGDVLFQMAEVHRQIQNQLEEMLKSFHNELLTQLEQKVELDSRYLSAALKKYQTEQRSKGDALDKCQAELKKLRKKSQGSKNPQKYSDKELQYIDAISNKQGELENYVSDGYKTALTEERRRFCFLVEKQCAVAKNSAAYHSKGKELLAQKLPLWQQACADPSKIPERAVQLMQQVASNGATLPSALSASKSNLVISDPIPGAKPLPVPPELAPFVGRMSAQESTPIMNGVTGPDGEDYSPWADRKAAQPKSLSPPQSQSKLSDSYSNTLPVRKSVTPKNSYATTENKTLPRSSSMAAGLERNGRMRVKAIFSHAAGDNSTLLSFKEGDLITLLVPEARDGWHYGESEKTKMRGWFPFSYTRVLDSDGSDRLHMSLQQGKSSSTGNLLDKDDLAIPPPDYGAASRAFPAQTASGFKQRPYSVAVPAFSQGLDDYGARSMSRNPFAHVQLKPTVTNDRCDLSAQGPEGREHGDGSARTLAGR

Variants of: B1
Details: with rac1_human RAC1, P63000
In the case of MSLSRSEEMHELTENVYKTIMEEFNPSLRNFIAMGKNYEKALAGVTYAAKGYFDALVKMGELASESQGSKELGDVLFQMAEVHRQIQNQLEEMLKSFHNELLTQLEQKVELDSRYLSAALKKYQTEQRSKGDALDKCQAELKKLRKKSQGSKNPQKYSDKELQYIDAISNKQGELENYVSDGYKTALTEERRRFCFLVEKQCAVAKNSAAYHSKGKELLAQKLPLWQQACADPSKIPERAVQLMQQVASNGATLPSALSASKSNLVISDPIPGAKPLPVPPELAPFVGRMSAQESTPIMNGVTGPDGEDYSPWADRKAAQPKSLSPPQSQSKLSDSYSNTLPVRKSVTPKNSYATTENKTLPRSSSMAAGLERNGRMRVKAIFSHAAGDNSTLLSFKEGDLITLLVPEARDGWHYGESEKTKMRGWFPFSYTRVLDSDGSDRLHMSLQQGKSSSTGNLLDKDDLAIPPPDYGAASRAFPAQTASGFKQRPYSVAVPAFSQGLDDYGARSMSRNPFAHVQLKPTVTNDRCDLSAQGPEGREHGDGSARTLAGR [R11E;Q23E], the “effect of a mutation on the interaction” value is reported as “decreasing interaction strength”.
For MSLSRSEEMHRLTENVYKTIMEEFNPSLRNFIAMGKNYEKALAGVTYAAKGYFDALVKMGELASESQGSKELGDVLFQMAEVHRQIQNQLEEMLKSFHNELLTQLEQKVELDSRYLSAALKKYQTEQRSKGDALDKCQAELKKLRKKSQGSKNPQKYSDKELQYIDAISNKQGELENYVSDGYKTALTEERRRFCFLVEKQCAVAKNSAAYHSKGKELLAQKLPLWQQACADPSKIPERAVQLMQQVASNGATLPSALSASKSNLVISDPIPGAKPLPVPPELAPFVGRMSAQESTPIMNGVTGPDGEDYSPWADRKAAQPKSLSPPQSQSKLSDSYSNTLPVRKSVTPKNSYATTENKTLPRSSSMAAGLERNGRMRVKAIFSHAAGDNSTLLSFKEGDLITLLVPEARDGWHYGESEKTKMRGWFPFSYTRVLDSDGSDRLHMSLQQGKSSSTGNLLDKDDLAIPPPDYGAASRAFPAQTASGFKQRPYSVAVPAFSQGLDDYGARSMSRNPFAHVQLKPTVTNDRCDLSAQGPEGREHGDGSARTLAGR [Q23E], the “effect of a mutation on the interaction” value was “decreasing interaction strength”.
MSLSRSEEMHRLTENVYKTIMEQFNPSLRNFIAMGKNYEKALAGVTYAAKGYFDALVKMGELASESQGSKELGDVLFQMAEVHRQIQNQLEEMLKSFHNELLTQLEQKVELDSRYLSAALKKYQTEQRSKGDALDKCQAELKELRKKSQGSKNPQKYSDKELQYIDAISNKQGELENYVSDGYKTALTEERRRFCFLVEKQCAVAKNSAAYHSKGKELLAQKLPLWQQACADPSKIPERAVQLMQQVASNGATLPSALSASKSNLVISDPIPGAKPLPVPPELAPFVGRMSAQESTPIMNGVTGPDGEDYSPWADRKAAQPKSLSPPQSQSKLSDSYSNTLPVRKSVTPKNSYATTENKTLPRSSSMAAGLERNGRMRVKAIFSHAAGDNSTLLSFKEGDLITLLVPEARDGWHYGESEKTKMRGWFPFSYTRVLDSDGSDRLHMSLQQGKSSSTGNLLDKDDLAIPPPDYGAASRAFPAQTASGFKQRPYSVAVPAFSQGLDDYGARSMSRNPFAHVQLKPTVTNDRCDLSAQGPEGREHGDGSARTLAGR [K143E] was tested, and the “effect of a mutation on the interaction” value was “decreasing interaction strength”.
With MSLSRSEEMHRLTENVYKTIMEQFNPSLRNFIAMGKNYEKALAGVTYAAKGYFDALVKMGELASESQGSKELGDVLFQMAEVHRQIQNQLEEMLKSFHNELLTQLEQKVELDSRYLSAALKKYQTEQRSKGDALDKCQAELKELRKESQGSKNPQKYSDKELQYIDAISNKQGELENYVSDGYKTALTEERRRFCFLVEKQCAVAKNSAAYHSKGKELLAQKLPLWQQACADPSKIPERAVQLMQQVASNGATLPSALSASKSNLVISDPIPGAKPLPVPPELAPFVGRMSAQESTPIMNGVTGPDGEDYSPWADRKAAQPKSLSPPQSQSKLSDSYSNTLPVRKSVTPKNSYATTENKTLPRSSSMAAGLERNGRMRVKAIFSHAAGDNSTLLSFKEGDLITLLVPEARDGWHYGESEKTKMRGWFPFSYTRVLDSDGSDRLHMSLQQGKSSSTGNLLDKDDLAIPPPDYGAASRAFPAQTASGFKQRPYSVAVPAFSQGLDDYGARSMSRNPFAHVQLKPTVTNDRCDLSAQGPEGREHGDGSARTLAGR [K143E;K147E] the “effect of a mutation on the interaction” value was “decreasing interaction strength”.
MSLSRSEEMHRLTENVYKTIMEQFNPSLRNFIAMGKNYEKALAGVTYAAKGYFDALVKMGELASESQGSKELGDVLFQMAEVHRQIQNQLEEMLKSFHNELLTQLEQKVELDSRYLSAALKKYQTEQRSKGDALDKCQAELAALAAASQGSKNPQKYSDKELQYIDAISNKQGELENYVSDGYKTALTEERRRFCFLVEKQCAVAKNSAAYHSKGKELLAQKLPLWQQACADPSKIPERAVQLMQQVASNGATLPSALSASKSNLVISDPIPGAKPLPVPPELAPFVGRMSAQESTPIMNGVTGPDGEDYSPWADRKAAQPKSLSPPQSQSKLSDSYSNTLPVRKSVTPKNSYATTENKTLPRSSSMAAGLERNGRMRVKAIFSHAAGDNSTLLSFKEGDLITLLVPEARDGWHYGESEKTKMRGWFPFSYTRVLDSDGSDRLHMSLQQGKSSSTGNLLDKDDLAIPPPDYGAASRAFPAQTASGFKQRPYSVAVPAFSQGLDDYGARSMSRNPFAHVQLKPTVTNDRCDLSAQGPEGREHGDGSARTLAGR [K142A;K143A;R145A;K146A;K147A] was tested, and the “effect of a mutation on the interaction” value was “decreasing interaction strength”.
